The source of these data is patent publication US10975360B2, “Process for the modification of alkanes, fatty acids and fatty alcohols” (priority 2016, dated 2021).

A short description of data set [1]: Whole cell biotransformation of dodecane by CYP505s expressed in P. pastoris. Type of data set: cell-based. Conditions: whole cells of P. pastoris; for products produced from dodecane (GC-MS): 1 M dodecane, 24 h; for ω-7 hydroxylase activity C12alk: C12 alkane, GC-MS peak height. As for the experimental part: (§1) Precultures of P. pastoris transformants were prepared in buffered complex glycerol media (BMGY). BMGY contained: 10 g/l yeast extract, 20 g/l peptone, 3.4 g/l yeast nitrogen base, 10 g/l ammonium sulfate, 100 mM potassium phosphate (pH 6), 0.4 mg/l biotin and 1% (v/v) glycerol. Erlenmeyer flasks (500 ml) containing 50 ml BMGY media were inoculated with single colonies of 24 h old YPD-agar cultures of P. pastoris KM71 mut^s3/CYP505E3 and incubated at 30° C. and 225 rpm for 24 h. The cultures were harvested using pre-weighed centrifuge tubes at 3000 g for 5 min and stored on ice until further use.
(§2) The main cultures for expression were prepared in buffered complex methanol media (BMMY) containing 10 g/l yeast extract, 20 g/l peptone, 3.4 g/l yeast nitrogen base, 10 g/l ammonium sulfate, 100 mM potassium phosphate (pH 6), 0.4 mg/l biotin and 0.5 or 1% (v/v) methanol. Harvested cells from precultures were resuspended in BMMY media to final concentration of 1 g WC per 40 ml (appx. 25 g/l). The resuspended cultures (100 ml) were transferred to 500 ml Erlenmeyer flasks and incubated at 25° C. and 225 rpm for 24 h. The cultures were then harvested at 3000 g for 5 min using pre-weighed centrifuge tubes.
(§3) Different transformants of Pichia pastoris KM71 harbouring the CYP505 genes for SEQ ID Nos 1 to 7 and 9 to 12 were grown and harvested as described above. The harvested cells were resuspended to give 1 g wet cell weight in 40 ml MOPS buffer (200 mM, 100 mM glucose, 100 mM glycerol, pH 8) and 1 ml aliquots of these cell suspensions were transferred to 40 ml amber vials. Dodecane, 1-dodecanol and 1-tetradecanol were added neat to these cell suspensions to give final concentrations of 200 mM in the case of the alcohols and 1 M in the case of dodecane while in the case of dodecanoic acid 20 μl of a 500 mM stock solution (in DMSO) was added to give a final concentration of 10 mM. Transformants harbouring the CYP505 genes for SEQ ID Nos 1 to 4 were tested for the biotransformation of 1-dodecanol, 1-tetradecanol, dodecanoic acid, tetradecanoic acid and dodecane, while those harbouring the CYP505 genes for SEQ ID Nos 5 to 7 and 9 to 12 were only tested for the biotransformation of 1-dodecanol and dodecanoic acid. The biotransformations were incubated at 25° C. and 225 rpm for 24 h. Extractions were performed using ethyl acetate (500 μl×2). The extracts were analyzed using GC/MS.

The format of data set [2] is cell-based, P. pastoris. The protocol:
as §1, §2, §3

B1: CYP505E1: CYP505 cytochrome P450 monooxygenase from Aspergillus niger, SEQ ID No 3 (protein, listed as Aspergillus kawachii)
chain: MKDAERIPGPKPLPVVGNLFDIDPEHSLESIVAFAEKFGPLFQITINGEKQIFATSQALVDELCDELRFHKAVVTGLEILRLLAHDGLFTAYHGERGWGIAHRILVPAFGPLRIRNMLDDMSDVAQQLCLKWARQGGSTSINITEDFTRLTLDTIALCTMGFRLNSFYNNETMHPFVQSMLYVLREADIQANLPGIANSIRVSAQRRMHKNIEAMRTMARGIIQERRKNKNPVDDILNTLLNGRDPVTGEGMSDDSIIDNVITFLIAGHETTSGLLSFTFYFLIQHPHILKKAQEEVDETVGLAQISAQHLAELPYIDAILKESLRLMPTAPGFTVTPKKTEVLGGRWMINAGQPVNVLLPACLRDQSVFGPDADEFRPERMLAENFSKLPPNSWKPFGNGERGCIGRAFAWQEAQLVVAMILQTFDLVPDDPSYQLRIKETLTIKPDGFRIRATLRRGQTATGLSRRSMLVARDGSSEESSNHPAEARGDHAPARGQPVSFFYGSNSGTCKALAHQLASNMMSRGYTTQKLAPLDNAVDNLPRDQPVIILTTTYDGQPTDNAKKFVAWLETGNVLSLQGISYAVFGCGHHDWTQTFYRIPILIDDLMYKAGATRLAPRGAANAAVSDLFSDLEAWEETSLLPALRENFLPSNSTDFDPLNPHQIQLSLSKPRRVDLHKGLIEAKVTAVRVLTSPDTPEKRHLEFCFQGDLSLRPGDHLNILPVNPPSTVSRVLAQFNLAPDYNITVNSFNTLGLPQATPVSASELFSSYVELCQPATRNNLKSLIAATQSDTVKQELNRLYDSYEFIVRDKRVSVLDLLEQFPSISLPIAAFISMLPALRVRTYSLSMAPAFKPSHSSLTFSVINEPAWRGSGQHLGVASNYLASLTSGSIFYFSPRPAKETFHLPKDPSRTPIIMICAGSGLAPFLSFIQDRMVLKQQNKPLAKAFLFFGCRGRSLDDLYHEELSEYEAAGVVEVRRAYSKTPEFDIAKGCRYVQHRLVTEGQAILSLWAQNAIIYVCGSTSMAKGAEAVLQNMLGPLPKERYVTEIF
For B1, in data set [1], the “products produced from dodecane (GC-MS)” value is recorded as 5-dodecanol and the “ω-7 hydroxylase activity C12alk” value was “+ (+ − 0.01 million < RA < 0.1 million)”. Further, in data set [2], the “products produced from tetradecanoic acid (GC-MS)” value was “only 7-hydroxy tetradecanoic acid” and the “ω-7 hydroxylase activity C14o” value is on record as “−”.

B2: CYP505Ak: CYP505 cytochrome P450 monooxygenase from Aspergillus kawachii, SEQ ID No 2 (protein)
chain: MRDAERIPGPTPLPVVGNLFDIDLEHVLQSVIGLANKYGPLFQITINGEKQIFATSQALVDELCDESRFHKAVASGLENLRMLAHDGLFTAYHGERGWGIAHRILVPAFGPLRIQSMFDDMGDLAQQLCLKWARQGASNSINITDDFTRLTLDTIALCTMDFRLNSFYNNDTMHPFVESMLYVLREADVQSALPGIANSVRIMAHRRMLKNIEAMRTIARDIIHDRRKKENPADDLLNTLLNGRDPVTGEGMSDESIIDNVITFLVAGHETTSGLLSFTFYYLVQHPDILKKAQKEVDETVGQAQISVQHLAELPYIDAILKESLRMMPTAPGFTVTPKKAETLGGKWLLNAGQPINVLLPACLRDRSIFGPNADEFSPGRMLAENFSKLPPNSWKPFGNGERSCIGRAFAWQEAQLVVAMILQNFDLVPDDPSYTLRIKETLTIKPDGFRVRATLRHRQTATGLFQHTLSARNDTSLASSSAHFIKKSEDQAPAGGRPICFFYGSNSGTCKALAHRLASDLMPYGFTDQKLAVLDTAVDNLPRDQPVIILTTTYDGQPTDDAKKFVAWLESGKVPALQGISYAVFGCGHHDWTQTFYRIPTLIDELMHKAGATRLAPRGTANAAVSDLFSDLEAWEETSLLPALRETFLLSSSSDLEPLNLHQLQISLSKPRRIDLHKDLMEARVTTVRILTNPDTPEKRHIEFRFQGDTTLRPGDHVNVLPVNPPSTVLRVLAQFNLAPDYSITINSFNTLGLPQATPVSASELFSAYVELSQPATRNNLRILAATAQSDEDKQELIHLQDSYDSLVRDKRVSVLDLLEQFPSVSLPIAAFISMLPALRLRTYSLSLAPSFKPSHGSLTFSVVNEPARNGNRRYLGVGSNYLASLTPGSILYLSPRPAKEAFHLPVDQSRIPIIMICAGSGLAPFLSFIQDRMIWQQQDKPLARALLFFGCGGRFLDDLYHEELSEFEAAGVVDVRRAYSKVLDYDMARGCKYVQDRLVAEANAIRHLWAQDATIYVCGSADMAKGVEGVLEKLLGMLPRERYVTEIYQMQTRDNVSEWLI
modifications: Aspergillus niger
B2: in data set [1], the “products produced from dodecane (GC-MS)” value is 5-dodecanol and the “ω-7 hydroxylase activity C12alk” value is “++ (++ 0.1 million < RA < 1 million)”. Besides, in data set [2], the “products produced from tetradecanoic acid (GC-MS)” value is “only 7-hydroxy tetradecanoic acid”.

B3: CYP505St: CYP505 cytochrome P450 monooxygenase from Setosphaeria turcica, Seq ID 12 in Table 2 (protein, listed as Setosphaeria turcica)
chain: MSAPNRQLVPIPGPSALPIVGNTFDLDLDASIQSLVNMFEEYGPVFQLTIAGHKQIFVGNVQLTNEVCDESRFCKIVFSGLELLRSAVHDGLFTAHEGERNWDIAHRILMPVFGPTKIRGMFDQMNDIAQQLCLKWGRYGPTFPIEVTEDFTRLTLDTIALCAMGYRFNSFYRDNMHPFVDRMNRFLKDTNTQSGLPDLFNSLWLHAKKRNKEDIKAMREFSQEVVDQRRQNPVDADDLLNALLHQTDPKTGEGLSDSSIIDNMITFLVAGHETTSGLLSFAFYYMLKNPWAMEKAQQEVDNVIGTERVTVNHLSKLEYLNAILRETLRLMPTAPAFTVGALKDDVIGGKYAVKKGEPINPILQAVHCDKEVYGPDATEWKPERMLEEGFHKLPANSWKPFGNGKRGCIGRAFAWQEALLVVAVLLQSFTFTEDDPSYQLRIREALTIKPDGFKIRATLREHKTTAGMVPESVQSLRQAQKSGKPGNSKSSANESMVGQGNGRSVSIFYGSNSGSCESLANLLASDCAKYGFSVQTTDALDAARENFTSNQIVLIVASTYDGKPADNATEFVNWLKSLTGEPLKGVSYAVFGCGHHDWATTFYKIPILIDELLEQRGAQRVAPRGAANAAVSDLFSDLEKWEESILWPALGLTPALLESQGDTQPRLTISFQRPYTQRKEFLEATVTSASELTTSASPSRKCHMELQLPQDMTYNTGDYLAVLPLNPLSNVQRALSRFHLAWDSVLVIEATGPTQLPTATPISVADLFGAYVELSQPATPRNIRALAGAASDEPTKQALLKLAEDDFATQVRDKRLSVLDLLGQYESVALPVEAFIEMLLPLRPRTYSISSAPQWNPSHASITWSIIDTVSWSGHGRFLGVASNHLYDLSPGAVVRVSVRRSNPAFHPPQDPNSYPIIMIASGSGLAPFRGFIQERALQQKAGMTLAPALLFFGCRGRDDDLHRAEMDDFEKSGVVRVMRAYSKAPNEPDAFGCAYIQERVWSERKEFRELWNRGATVFVCGGTKMSEAIKDVFIKIAYGNAGQDDNKSSRDWFASLDPHRYVAEVFN
As for B3, in data set [2], the “ω-7 hydroxylase activity C12FA” value was “−” and the “ω-7 hydroxylase activity C12ol” value is “−”.

B4: CYP505Pe: CYP505 cytochrome P450 monooxygenase from Penicillium expansum, SEQ ID No 4 (protein, listed as Penicillium expansum)
chain: MKDMESIPGPKPLPVVGNLFDIDLENGLQSIIKMAHEFGPLFQITINGQKQIFATSQALVDELCDETRFHKAVMGGIQKLRMLAKDGLFTAYHGERGWGIAHRILMPAFGPLRIRDMFEDMSDVAQQLCFKWARQGSSTSINICDDFTRLTLDTIALCTMGFRLNSYYNSNALHPFIESMLYVLKEAELQSTLPGVANCMRVKAQRRMSKHIDAMRSMARNLIEERRAKPEPVDDLLNTLLNGRDPITGEGMSDDLIISNIITFLIAGHETTSGLLSFTFYYLLQNQDVLERARNEVDEVTGVGPITVQHLAKLPYIDAIMKESLRLMPTAPAFTVTPQKPEVLGGKWMINTGDSVNLLLPVCLRDETVFGPDAGEFRPNRMLEENFSKLPPNSWKPFGNGERGCIGRAFAWQEAQLVVALVLRTFDLAAEDPYYKLRIKETLTIKPDGFRIRATLRHGKSATALSQNNISVGAAASPASSTYLAGNENGRDAAGGQPVSFFYGSNSGTCKALTHRLASTMMTRGFTDQNIAPLDSAVDNLPRDQPTIIITTTYDGQPTDDAKKFVAWLESGNSPSLQGVSYAVFGCGHQDWTKTFYRIPILIDALMYKAGATRLATRGAANAAISDLFSDLEVWEETNLLPGLRESFNPPNNSNFVPLEPHQLQISINKPTRVGMHRDLIEAKVTAIRTLTSPGAPEKRHLEFCIPGETTLRPGDHLNILPVNPPSTVSRALARFNLAPDHSITFESSNALDLPQATPVSAAELFSSYLELSQPATRNNLKELASTTPSDGEKQELLHLYDSYDSLIRAKRASVLDLLEQFTSVTLPITTFISMLPALRVRTYSLSMAPSFKPLHYSLTFSVINEPAWNGNGRYLGVASNYLASLNLGSILYISPRPAKDAFHLPTDQSSKPIIMICAGSGLAPFRSFIQDRMLWQQQDKTLAKALLFFGCRSPQLDDLYHDELSQFEAAGVVEVRRAYSKVPNHYLAKGCRYVQHRLLTETETIQDMWAQDAIIYVCGSGNLAKGVKAVLESMLGTLSERYITEIF
With B4, in data set [1], the “products produced from dodecane (GC-MS)” value is on record as 5-dodecanol and the “ω-7 hydroxylase activity C12alk” value is reported as “++ (++ 0.1 million < RA < 1 million)”. For the same molecule, in data set [2], the “products produced from tetradecanoic acid (GC-MS)” value is “only 7-hydroxy tetradecanoic acid” and the “ω-7 hydroxylase activity C14o” value is recorded as “−”.
